Among the data in patent publication US20170081379A1 are Kd values, retold here.

For this test, the target named is recombinant HDM2 17-125 (human) (UniProt Q00987). In words: fluorescence polarization, FITC-labeled peptide with HDM2 17-125. (Fluorescence polarisation rises when a labelled molecule tumbles more slowly, as on binding a larger partner.)
Sequence of recombinant HDM2 17-125 (human) (Q00987 17-125 limits assumed): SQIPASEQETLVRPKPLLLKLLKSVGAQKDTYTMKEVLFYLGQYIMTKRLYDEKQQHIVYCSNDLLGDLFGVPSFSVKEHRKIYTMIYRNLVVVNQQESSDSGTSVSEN

As usually defined, the Kd is the equilibrium constant for the complex coming apart. FITC-SAH-p53-8F19A (peptide): the Kd is more than 4 µM.
